According to patent publication US20220372167:

B1: human PAPP-A protein with C-terminal C-myc and Flag tags (protein)
chain: EARGATEEPSPPSRALYFSGRGEQLRVLRADLELPRDAFTLQVWLRAEGGQRSPAVITGLYDKCSYISRDRGWVVGIHTISDQDNKDPRYFFSLKTDRARQVTTINAHRSYLPGQWVYLAATYDGQFMKLYVNGAQVATSGEQVGGIFSPLTQKCKVLMLGGSALNHNYRGYIEHFSLWKVARTQREILSDMETHGAHTALPQLLLQENWDNVKHAWSPMKDGSSPKVEFSNAHGFLLDTSLEPPLCGQTLCDNTEVIASYNQLSSFRQPKVVRYRVVNLYEDDHKNPTVTREQVDFQHHQLAEAFKQYNISWELDVLEVSNSSLRRRLILANCDISKIGDENCDPECNHTLTGHDGGDCRHLRHPAFVKKQHNGVCDMDCNYERFNFDGGECCDPEITNVTQTCFDPDSPHRAYLDVNELKNILKLDGSTHLNIFFAKSSEEELAGVATWPWDKEALMHLGGIVLNPSFYGMPGHTHTMIHEIGHSLGLYHVFRGISEIQSCSDPCMETEPSFETGDLCNDTNPAPKHKSCGDPGPGNDTCGFHSFFNTPYNNFMSYADDDCTDSFTPNQVARMHCYLDLVYQGWQPSRKPAPVALAPQVLGHTTDSVTLEWFPPIDGHFFERELGSACHLCLEGRILVQYASNASSPMPCSPSGHWSPREAEGHPDVEQPCKSSVRTWSPNSAVNPHTVPPACPEPQGCYLELEFLYPLVPESLTIWVTFVSTDWDSSGAVNDIKLLAVSGKNISLGPQNVFCDVPLTIRLWDVGEEVYGIQIYTLDEHLEIDAAMLTSTADTPLCLQCKPLKYKVVRDPPLQMDVASILHLNRKFVDMDLNLGSVYQYWVITISGTEESEPSPAVTYIHGRGYCGDGIIQKDQGEQCDDMNKINGDGCSLFCRQEVSFNCIDEPSRCYFHDGDGVCEEFEQKTSIKDCGVYTPQGFLDQWASNASVSHQDQQCPGWVIIGQPAASQVCRTKVIDLSEGISQHAWYPCTISYPYSQLAQTTFWLRAYFSQPMVAAAVIVHLVTDGTYYGDQKQETISVQLLDTKDQSHDLGLHVLSCRNNPLIIPVVHDLSQPFYHSQAVRVSFSSPLVAISGVALRSFDNFDPVTLSSCQRGETYSPAEQSCVHFACEKTDCPELAVENASLNCSSSDRYHGAQCTVSCRTGYVLQIRRDDELIKSQTGPSVTVTCTEGKWNKQVACEPVDCSIPDHHQVYAASFSCPEGTTFGSQCSFQCRHPAQLKGNNSLLTCMEDGLWSFPEALCELMCLAPPPVPNADLQTARCRENKHKVGSFCKYKCKPGYHVPGSSRKSKKRAFKTQCTQDGSWQEGACVPVTCDPPPPKFHGLYQCTNGFQFNSECRIKCEDSDASQGLGSNVIHCRKDGTWNGSFHVCQEMQGQCSVPNELNSNLKLQCPDGYAIGSECATSCLDHNSESIILPMNVTVRDIPHWLNPTRVERVVCTAGLKWYPHPALIHCVKGCEPFMGDNYCDAINNRAFCNYDGGDCCTSTVKTKKVTPFPMSCDLQGDCACRDPQAQEHSRKDLRGYSHG
B2: murine PAPP-A protein with C-terminal C-myc and Flag tags (protein)
chain: RGAEEPSPPSRALYFSGRGEQLRLRADLELPRDAFTLQVWLRAEGGQKSPAVITGLYDKCSYTSRDRGWVMGIHTTSDQGNRDPRYFFSLKTDRARKVTTIDAHRSYLPGQWVHLAATYDGRLMKLYMNGAQVATSAEQVGGIFSPLTQKCKVLMLGGSALNHNFRGHIEHFSLWKVARTQREIVSDMETRGLHTPLPQLLLQENWDNVKRTWSPMKDGNSPQVEFSNAHGFLLDTNLEPPLCGQTLCDNTEVISSYNQLPSFRQPKVVRYRVVNIYDDHHENPTVSWQQIDFQHQQLAEAFQHYNISWELEVLNINSSSLRHRLILANCDISKIGDEKCDPECNHTLTGHDGGDCRQLRYPAFMKKQQNGVCDMDCNYERFNFDGGECCDPDITDVTKTCFDPDSPHRAYLDVNELKNILRLDGSTHLNIFFANSSEEELAGVATWPWDKEALMHLGGIVLNPSFYGIPGHTHTMIHEIGHSLGLYHIFRGISEIQSCSDPCMETEPSFETGDLCNDTNPAPKHKFCGDPGPGNDTCGFHGFFNTPYNNFMSYADDDCTDSFTPNQVSRMHCYLDLVYQSWQPSRKPAPVALAPQVVGHTMDSVMLEWFPPIDGHFFERELGSACDLCLEGRILVQYAFNASSPMPCGPSGHWSPREAEGHPDVEQPCKSSVRTWSPNSAVNPHTVPPACPEPQGCYLELEFRYPLVPESLTIWVTFVSSDWDSSGAVNDIKLLTISGKNISLGPQNVFCDIPLTIRLRDVGEEVYGIQIYTLDEHLEIDAAMLTSTVDSPLCLQCKPLQYKVLRDPPLLEDVASLLHLNRRFMDTDLKLGSVYQYRIITISGNEESEPSPAAIYTHGSGYCGDGVIQKDQGEECDDMNKVNGDGCSLFCKQEVSFNCIDEPSRCYFHDGDGMCEEFEQKTSIKDCGVYTPQGFLDQWASNASVSHQDQQCPGWVVIGQPAASQVCRTKVIDLSEGISQHAWYPCTITYPYYHLPQTTFWLQTYFSQPMVAAAVIIHLVTDGTYYGDQKQETISVQLLDTKDQSHDLGLHVLSCRNNPLIIPVVHDLSQPFYHSQAVHVSFSSPLVAISGVALRSFDNFDPVTLSSCQRGETYSPAEQSCVHFACQAADCPELAVGNASLNCSSNHHYHGAQCTVSCQTGYVLQIQRDDELIKSQVGPSITVTCTEGKWNKQVACEPVDCGIPDHHHVYAASFSCPEGTTFGRRCSFQCRHPAQLKGNNSFLTCMEDGLWSFPEALCELMCLAPPPVPNADLQTARCRENKHKVGSFCKYKCKPGYHVPGSSRKSKKRAFKTQCTQDGSWQEGTCVPVTCDPPPPKFHGLYQCTNGFQFNSECRIKCEDSDASQGRGSNIIHCRKDGTWSGSFHVCREMQGQCSAPNQLNSNLKLQCPDGYAIGSECAISCLDHNSESIILPVNLTVRDIPHWMNPTRVQRIVCTAGLQWYPHPALIHCVKGCEPFMGDNYCDAINNRAFCNYDGGDCCTSTVKTKKVTPFPMSCDLQNDCACRDPEAQEHNRKDLRGYSHG

Tests used:
[1] = target: five representative anti-PAPP-A antibodies generated from yeast display libraries
[2] = target: T1, human IGFBP-2 with N-terminal 6His tag, P18065
T1 chain: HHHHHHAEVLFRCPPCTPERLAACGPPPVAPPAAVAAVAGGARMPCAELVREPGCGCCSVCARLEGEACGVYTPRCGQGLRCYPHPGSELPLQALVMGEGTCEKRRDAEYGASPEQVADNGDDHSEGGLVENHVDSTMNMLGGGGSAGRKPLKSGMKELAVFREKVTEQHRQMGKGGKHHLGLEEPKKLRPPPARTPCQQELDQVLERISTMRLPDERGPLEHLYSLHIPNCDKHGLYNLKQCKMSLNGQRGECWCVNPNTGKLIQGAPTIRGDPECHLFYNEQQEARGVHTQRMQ

[3] = target: T2, human IGFBP-4 with N-terminal 6His tag, P22692
T2 chain: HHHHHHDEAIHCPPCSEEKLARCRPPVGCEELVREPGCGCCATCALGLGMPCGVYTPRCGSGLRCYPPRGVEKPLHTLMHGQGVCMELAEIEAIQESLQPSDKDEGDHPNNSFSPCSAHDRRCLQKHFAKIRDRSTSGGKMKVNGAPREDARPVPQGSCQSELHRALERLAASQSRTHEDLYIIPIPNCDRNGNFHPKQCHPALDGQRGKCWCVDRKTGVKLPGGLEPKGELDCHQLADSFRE

[4] = target: human IGFBP-5 with N-terminal 6His tag, P24593
[5] = target: T3, murine IGFBP-2 with C-terminal 6His tag, P47877
T3 chain: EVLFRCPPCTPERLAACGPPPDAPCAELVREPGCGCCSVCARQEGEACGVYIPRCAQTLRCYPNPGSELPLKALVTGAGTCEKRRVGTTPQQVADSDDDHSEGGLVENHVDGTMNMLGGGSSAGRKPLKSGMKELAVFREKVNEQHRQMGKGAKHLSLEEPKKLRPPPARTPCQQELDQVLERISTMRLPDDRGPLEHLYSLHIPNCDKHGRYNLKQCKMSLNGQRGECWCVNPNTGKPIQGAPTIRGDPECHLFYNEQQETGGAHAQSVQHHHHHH

[6] = target: T4, murine IGFBP-4 with C-terminal 6His tag, P47879
T4 chain: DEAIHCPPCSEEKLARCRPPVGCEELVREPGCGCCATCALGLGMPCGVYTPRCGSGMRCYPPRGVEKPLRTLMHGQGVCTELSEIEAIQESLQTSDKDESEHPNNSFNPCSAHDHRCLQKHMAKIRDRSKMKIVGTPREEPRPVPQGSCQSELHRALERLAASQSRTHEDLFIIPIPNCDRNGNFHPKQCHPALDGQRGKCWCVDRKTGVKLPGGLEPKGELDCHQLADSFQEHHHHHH

[7] = target: T5, murine IGFBP-5 with C-terminal 6His tag, Q07079
T5 chain: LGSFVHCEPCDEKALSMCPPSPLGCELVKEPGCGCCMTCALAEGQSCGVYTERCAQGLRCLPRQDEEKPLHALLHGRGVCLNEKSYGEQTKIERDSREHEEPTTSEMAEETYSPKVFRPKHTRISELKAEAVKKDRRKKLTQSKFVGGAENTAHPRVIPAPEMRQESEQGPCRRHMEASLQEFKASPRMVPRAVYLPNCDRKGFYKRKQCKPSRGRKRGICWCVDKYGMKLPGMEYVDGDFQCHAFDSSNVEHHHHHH

human IGFBP-5 with N-terminal 6His tag, P24593, sequence (P24593 other isoform, or with tags, fused parts or gaps): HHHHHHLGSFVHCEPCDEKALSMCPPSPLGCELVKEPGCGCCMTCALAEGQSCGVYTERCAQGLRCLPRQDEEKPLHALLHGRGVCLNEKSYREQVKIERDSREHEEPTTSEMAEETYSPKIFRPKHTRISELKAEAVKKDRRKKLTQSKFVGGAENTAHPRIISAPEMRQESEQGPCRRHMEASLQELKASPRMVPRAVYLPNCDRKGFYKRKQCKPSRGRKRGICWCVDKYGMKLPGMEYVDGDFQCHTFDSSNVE

Protein | PAPP-A cleavage of human IGFBP4 at one antibody concentration (50 nM) [1] | enzymatic cleavage of IGFBP by PAPP-A [2] | enzymatic cleavage of IGFBP by PAPP-A [3] | enzymatic cleavage of IGFBP by PAPP-A [4] | enzymatic cleavage of IGFBP by PAPP-A [5] | enzymatic cleavage of IGFBP by PAPP-A [6] | enzymatic cleavage of IGFBP by PAPP-A [7]
B1 | the five representative antibodies effectively blocking cleavage of human IGFBP4 | cleavage of both human and murine IGFBP-4 and IGFBP-2 by PAPP-A | cleavage of both human and murine IGFBP-4 and IGFBP-2 by PAPP-A | PAPP-A's ability to cleave IGFBP-5 |  |  | 
B2 |  |  |  |  | cleavage of both human and murine IGFBP-4 and IGFBP-2 by PAPP-A | cleavage of both human and murine IGFBP-4 and IGFBP-2 by PAPP-A | PAPP-A's ability to cleave IGFBP-5
